For one assay, the system named is clone C3.22. As to the kind of experiment: IFN-γ production by CD4 clone C3.22 stimulated with peptide- or protein-pulsed EBV-B cells. The class given is cell-based, human. The note with it: 20 μg/ml protein. How it is done: EBV-B cells from hemochromatosis patient 1981 (LB-1981-EBV) were incubated with 20 μg/ml of ovalbumin (OVA) or MAGE-A3 protein (bacteria) for 20 h. Ten thousand cells were distributed in microwells to which an aliquot of microculture C3 (˜4,000 effector cells) was added. Several clones were obtained from microculture C3, in particular CD4^+ clones LB1981-CD4 527/C3.22 (referred to hereafter as clone C3.22) and LB1981-CD4 527/C3.43 (referred to hereafter as clone C3.43). The clones C3.22 and C3.43 (˜3,000 cells) were stimulated with LB-1981-EBV incubated with 20 μg/ml of MAGE-A3 (˜16,000 cells) or transduced with a retrovirus coding for a fusion protein Ii-MAGE-A3 (˜20,000 cells). IFN-γ production in the supernatant was estimated after overnight culture by ELISA. They both recognized autologous EBV-B cells loaded with protein MAGE-A3 (bacteria) or transduced with a retrovirus encoding a truncated invariant chain (Ii)-MAGE-A3 fusion protein (FIG. 17). These (most probably twin) clones recognized cells expressing Ii-MAGE-A3 endogenously and therefore they are directed against a MAGE-A3-derived antigen and not against a contaminant in the batch of protein.
The antigenic peptides were identified as described above, except that the peptides were tested at a concentration of 1 μg/ml and that the test was performed in 100 μl. Peptides LGDPKKLLTQHFVQEN (SEQ ID NO:82), KKLLTQHFVQENYLEY (SEQ ID NO:83), TQHFVQENYLEYRQVP (SEQ ID NO:84) and VQENYLEYRQVPGSDP (SEQ ID NO:85) were tested. Autologous EBV-B cells were incubated for 1 h with 1 μg/ml of each of the peptides. Clone C3.43 (3,000 cells) was then cocultured with 20,000 peptide-pulsed cells for 20 h. IFN-γ production in the supernatant was measured by ELISA.
Patient LB1981 was typed DPB1*0401. To confirm that DPB1*0401 was the presenting HLA-DP molecule, additional EBV-B cell lines were tested. Autologous LB 1981-EBV or allogeneic-EBV-B cells were incubated for 1 h with 1 μg/ml of peptides, and washed. CD4 clones (3,000 cells) were then incubated for 20 h with 20,000 peptide-pulsed EBV-B cells. IFN-γ released in the supernatant was measured by ELISA. Those EBV-B cell lines expressing DPB1*0401 were able to present the MAGE-A3243-258 peptide to clone C3.22 (Table VII). DPB1*0401 is expressed in approximately 64% of Caucasians.

Assay [1] relates to CD4 T cell clone LB 1555 CD4 436/B6.37. As to the kind of experiment: Recognition of retrovirally transduced cells by CD4 T cell clone (IFN-γ ELISA). The class given is cell-based, human. The conditions noted are these: overnight coculture. How it is done:
The EBV transformed cells were infected by resuspending the cells in an infection cocktail and centrifugation. Target cells were resuspended in 60 mm tissue culture plates (Falcon) at a density of 1.0×10^6 cells in 4 ml infection cocktail. The plates were centrifuged for 2 hours at 32° C. and 1200 rcf in an IEC centrifuge, rotor type 228. For each plate to be transduced, 4 ml of […] was prepared by diluting the viral supernatant 1:2 in EBV cell growth medium and adding protamine sulfate to a final concentration of 6 μg/ml. Centrifugation was followed by another 2 hours of incubation in a humidified incubator at 37° C. and cells were transferred to 4 ml of target cell growth medium. This transduction cycle was carried out immediately after plating the cells and was repeated at 24 and 48 hours. […]
5000 T cells of LB705 CTL 434/1 or 3000 T cells of clone LB1555 CD4 436/B6.37 were washed and cultured overnight in the presence of 5000 retrovirally transduced EBV B cells of MZ2-EBV, or LG2-EBV B cells, in 100 μl ID medium containing 10% HS, AAG and 50 U/ml rh IL-2 in a round-bottom 96 wells plate. […] After three washings the plates were incubated with 50 μl per well horseradish peroxidase conjugated streptavidin (1:3000 in PBS/0.5% BSA) for 30 min at RT, which was detected by TMB substrate, and H2SO4 to stop the reaction. The optical density was read at 450 nm. […]
For orientation: In an ELISA, binding on a coated surface is turned into a signal by an enzyme label.

B1: MAGE-A3: MAGE-A3 protein; recombinant His-MAGE-A3 produced in E. coli, or expressed from MFG MAGE-A3 retrovirus in Example 6 (protein, listed as Homo sapiens)
chain: MPLEQRSQHCKPEEGLEARGEALGLVGAQAPATEEQEAASSSSTLVEVTLGEVPAAESPDPPQSPQGASSLPTTMNYPLWSQSYEDSSNQEEEGPSTFPDLESEFQAALSRKVAELVHFLLLKYRAREPVTKAEMLGSVVGNWQYFFPVIFSKASSSLQLVFGIELMEVDPIGHLYIFATCLGLSYDGLLGDNQIMPKAGLLIIVLAIIAREGDCAPEEKIWEELSVLEVFEGREDSILGDPKKLLTQHFVQENYLEYRQVPGSDPACYEFLWGPRALVETSYVKVLHHMVKISGGPHISYPPLHEWVLREGEE
modifications: His tag
Take B1: the “recognition by clone C3.22 of autologous EBV-B cells loaded with protein” value in the assay on clone C3.22 is reported as “recognized”. Moreover, the “recognition of transduced MZ2 EBV by CD4 clone 436/B6.37 (IFN-γ release)” value in assay [1] was “not recognized”.

The values are drawn from patent publication US6716809B1, “Mage-A3 peptides presented by HLA class molecules” (priority 1997, dated 2004).
